Test results reported in US12122830 (ABL BIO, dated 2024).

Target: T1, human ROR1 expressed on the cell surface (human, UniProt Q01973 30-937)
T1 construct: whole, on cells; On JeKo-1 and Mino cells and other cancer cell lines (endogenous) and on transfected CHO and MC38 cells; also called cell surface-expressed ROR1; CHO-human ROR1
Test: flow cytometry on AGS cells (gastric cancer), C2E3 IgG at 10 µg/mL, MFI of anti-ROR1 / MFI of 2nd Ab
Description: For the cell lines, the binding to ROR1 was analyzed with FACS (FACSCalibur, BD Biosciences) by using the anti-ROR1 antibody of the present invention.
Specifically, after disassociating each cell line and washing in PBS, the number of cells was counted and set as 2 ×10^5 cells/200 µl PBS, and then the clone C2E3 among ROR1 monoclonal antibodies prepared in Example 3 was treated in 10 µg/mL, and it was reacted at 4° C. for 1 hour. After reaction, cells were washed in PBS, and then the FITC-labeled constant region (Fc)-specific antibody (Goat anti-human IgG FITC conjugate, Fc specific, Sigma, F9512, concentration: 2.0 mg/ml) was suspended in 2 µl/1 ×10^5 cells/200 µl PBS, and it was reacted at 4° C. for 1 hour. After reaction, cells were washed in PBS, it was analyzed using a FACSCalibur device. The negative control group was treated only with the FITC-labeled constant region (Fc)-specific antibody. To compare the expression degrees of ROR1 among the cancer cell lines, the value of the result for the peak shift in the experimental group treated with the ROR1 monoclonal antibody (C2E3) of the present invention was divided by the result for the peak shift in the control group (Mean Fluorescence Intensity Ratio MFI Ratio: MFI of anti-ROR1/MFI of 2nd Ab).

T1 sequence (Q01973 30-937): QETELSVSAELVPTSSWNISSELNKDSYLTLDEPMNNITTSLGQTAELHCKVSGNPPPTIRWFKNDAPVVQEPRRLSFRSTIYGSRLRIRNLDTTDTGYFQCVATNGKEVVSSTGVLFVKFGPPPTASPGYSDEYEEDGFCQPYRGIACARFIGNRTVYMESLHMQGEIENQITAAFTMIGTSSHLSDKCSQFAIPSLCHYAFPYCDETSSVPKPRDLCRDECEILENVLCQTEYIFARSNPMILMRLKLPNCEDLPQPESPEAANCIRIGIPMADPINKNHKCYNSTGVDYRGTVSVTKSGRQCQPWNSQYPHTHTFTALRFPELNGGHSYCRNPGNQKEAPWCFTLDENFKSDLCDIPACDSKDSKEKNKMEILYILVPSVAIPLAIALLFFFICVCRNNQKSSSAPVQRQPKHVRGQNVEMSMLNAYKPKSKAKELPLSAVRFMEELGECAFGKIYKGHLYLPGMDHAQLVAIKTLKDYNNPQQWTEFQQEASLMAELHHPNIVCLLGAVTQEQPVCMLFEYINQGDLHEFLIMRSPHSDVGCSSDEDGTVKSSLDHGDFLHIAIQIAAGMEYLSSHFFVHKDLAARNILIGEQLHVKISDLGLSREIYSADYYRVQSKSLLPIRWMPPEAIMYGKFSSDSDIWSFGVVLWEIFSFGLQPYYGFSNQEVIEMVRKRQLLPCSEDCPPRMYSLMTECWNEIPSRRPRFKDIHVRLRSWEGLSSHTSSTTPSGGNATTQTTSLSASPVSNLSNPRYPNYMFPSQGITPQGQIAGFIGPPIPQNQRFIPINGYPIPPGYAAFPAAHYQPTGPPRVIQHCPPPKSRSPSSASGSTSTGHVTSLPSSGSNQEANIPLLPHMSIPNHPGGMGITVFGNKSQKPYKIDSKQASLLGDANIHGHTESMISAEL

B1: C2E3 anti-ROR1 IgG antibody (antibody, V domains shown)
VH: EVQLLESGGGLVQPGGSLRLSCAASGFTFSNYAMSWVRQAPGKGLEWVSSISHNSGSTYYADSVKGRFTISRDNSKNTLYLQMNSLRAEDTAVYYCAKFISARKSLGRSYSNGMDVWGQGTLVTVSS
VL: QSVLTQPPSASGTPGQRVTISCTGSSSNIGSNDVTWYQQLPGTAPKLLIYADSKRPSGVPDRFSGSKSGTSASLAISGLRSEDEADYYCGTWDYSLSGYVFGGGTKLTVLG
With B1 the “Mean Fold Ratio” value was 12.3.
